The text below walks through data of patent US20240270828A1.

In the assay the target is SARS-CoV-2 S (SARS-CoV-2) (UniProt P0DTC2). Description: SPR Biacore T200, hmAb captured, S injected, 1:1 fit. For orientation: Surface plasmon resonance follows binding to a sensor surface in real time, without labels.
For CC40.8 (antibody), the Kd was 6.69 nM. Consider CV3-25 (antibody), for which the Kd came to 13.2 nM. With S2P6 (antibody), the dissociation constant Kd is 32 nM.

For orientation: Kd means the equilibrium constant for the complex coming apart.
